Data on one molecule can be found in patent US20220048996A1 (F STAR BETA, published 2022).

Test [1] addresses T1, cynomolgus OX40 expressed on DO11.10 cells (DO11.10-cOX40) (cynomolgus, UniProt P43489 29-277 (human entry)).
T1 chain: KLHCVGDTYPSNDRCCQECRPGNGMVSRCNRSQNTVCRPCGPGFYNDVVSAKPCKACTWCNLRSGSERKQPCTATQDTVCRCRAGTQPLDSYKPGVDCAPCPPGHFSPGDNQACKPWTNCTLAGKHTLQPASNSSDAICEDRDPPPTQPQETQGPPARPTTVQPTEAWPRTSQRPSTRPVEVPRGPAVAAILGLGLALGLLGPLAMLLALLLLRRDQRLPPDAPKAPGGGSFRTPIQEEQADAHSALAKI
Put plainly: flow cytometry on DO11.10 cells expressing the target, mean ± SD of three experiments. The procedure:
(§1) 50 μl of the antibody dilutions were added to the wells containing cells (final volume 100 μl) and incubated at 4° C. for 1 hour. […] The plates were washed and resuspended in 100 μl of PBS containing DAPI (Biotium, cat no 40043) at 1 μg/ml. The plates were analysed using a Canto II flow cytometer (BD Bioscience) and the data analysed using FlowJo. Dead cells were identified by their higher fluorescence on the UV (405 nm/450/50) channel and excluded from analysis. […] The GMFI data was fit using log (agonist) vs response (three parameters) in Graph Pad Prism Software to generate EC₅₀ values.
(§2) However, in this experiment, instead of using HEK cells to analyse the non-specific binding, non-transduced DO11.10 cells were used. […] The experiment was repeated three times to increase the reliability of the EC₅₀ values calculated.

Test [2] has as its target T2, cynomolgus CD137 expressed on DO11.10 cells (DO11.10-cCD137) (cynomolgus monkey, UniProt Q07011 24-255 (human entry)).
T2 chain: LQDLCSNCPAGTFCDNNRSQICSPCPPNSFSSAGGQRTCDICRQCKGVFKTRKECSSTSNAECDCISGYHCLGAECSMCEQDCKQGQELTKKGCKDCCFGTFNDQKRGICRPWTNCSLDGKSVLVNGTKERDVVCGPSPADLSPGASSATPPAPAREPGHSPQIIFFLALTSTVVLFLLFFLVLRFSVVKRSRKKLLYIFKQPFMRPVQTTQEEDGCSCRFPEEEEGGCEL
The test is described as above. The procedure:
as §1, §2

Test [3] concerns the target T3, human OX40 expressed on DO11.10 cells (DO11.10-hOX40) (human, UniProt P43489 29-277).
T3 construct: Also used here for OX40 on primary human T cells in the functional rows; also called human OX40 receptor; OX40 on human T cells
T3 sequence: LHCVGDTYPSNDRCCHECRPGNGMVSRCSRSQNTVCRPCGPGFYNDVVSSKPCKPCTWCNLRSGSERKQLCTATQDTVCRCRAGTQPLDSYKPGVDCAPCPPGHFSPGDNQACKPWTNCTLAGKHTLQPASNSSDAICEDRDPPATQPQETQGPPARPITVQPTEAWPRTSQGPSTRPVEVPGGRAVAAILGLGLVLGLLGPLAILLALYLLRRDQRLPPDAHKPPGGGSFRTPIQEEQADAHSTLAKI
The test is described as above. The procedure:
as §1, §2

The target in test [4] is T4, human CD137 expressed on DO11.10 cells (DO11.10-hCD137) (human, UniProt Q07011 24-255).
T4 construct: also called CD137 on human T cells
T4 sequence (Q07011 24-255): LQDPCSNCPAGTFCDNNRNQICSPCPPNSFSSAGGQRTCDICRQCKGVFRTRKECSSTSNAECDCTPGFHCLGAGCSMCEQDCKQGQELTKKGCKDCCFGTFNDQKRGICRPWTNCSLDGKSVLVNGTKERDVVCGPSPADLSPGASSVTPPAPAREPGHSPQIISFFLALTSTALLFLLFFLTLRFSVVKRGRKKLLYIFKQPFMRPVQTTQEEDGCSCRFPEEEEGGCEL
The description is as above. The procedure: as §1, §2

Test [5] has as its target T5, hFcγR3a (R&D Systems 4325-FC-050/CF) (human, UniProt P08637 17-208).
T5 construct: Bought; In the ADCC bioassay FcγRIIIa stood on engineered Jurkat cells; also called FcγRIIIa
The experiment in a line: SPR, antibody 100 nM on OX40-his chip co-injected with FcγR 500 nM. The procedure:
(§3) Binding was tested on a Biacore 3000 instrument (GE Healthcare). Human OX40 (BPS Bioscience cat no 71310) and human CD137 (produced in house) biotinylated his-tagged antigens were coated onto an SA chip (GE Healthcare cat no BR100398) at 2 μM concentration. Human OX40 and human CD137 were coated on separate flow cells, while another flow cell was left blank for background subtraction. Regeneration conditions were determined to be 12 μl aqueous 10 mM glycine-HCl at pH2.0 at 20 μl/min flow rate. Antibodies (see Table 8) and human FcγRs (see Table 8) were diluted to 100 nM (antibodies) or 500 nM (human FcγRs) in HBS-P (0.01 M HEPES pH 7.4, 0.15 M NaCl, 0.005% v/v Surfactant P20, GE Healthcare, BR-1003-68) and co-injected at 20 μl/min flow rate and the dissociation was followed for 5 min.
(§4) Data analysis was performed with BiaEvaluation software version 3.2 RC1 by referencing against the blank flow cell and aligning the curves after the association of the antibody. Values for binding response at the end of the association phase were generated by subtracting the […] to normalize the effect of the antibody binding to the OX40 and CD137 receptors.

Test [6] addresses T6, hFcγR1 (R&D Systems 1257-FC-050/CF) (human, UniProt P12314 16-288).
T6 construct: Bought; also called FcγRI
Described as above. The procedure:
as §3, §4

Test [7] has as its target T7, hFcγR2a (R&D Systems 1330-CD-050/CF) (human, UniProt P12318 36-218, limits assumed).
T7 construct: Bought; also called FcγRIIa
T7 sequence (looked up): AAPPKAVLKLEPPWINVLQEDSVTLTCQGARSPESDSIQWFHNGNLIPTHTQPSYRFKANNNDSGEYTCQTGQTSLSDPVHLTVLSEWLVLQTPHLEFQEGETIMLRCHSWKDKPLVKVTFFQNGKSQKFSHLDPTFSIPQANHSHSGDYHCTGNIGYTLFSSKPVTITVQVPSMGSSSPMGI
The description is as above. The method, then: as §3, §4

In test [8] the target is T1, cynomolgus OX40 expressed on DO11.10 …. Put plainly: flow cytometry on DO11.10 cells expressing the target.

T5 sequence (P08637 17-208 limits assumed): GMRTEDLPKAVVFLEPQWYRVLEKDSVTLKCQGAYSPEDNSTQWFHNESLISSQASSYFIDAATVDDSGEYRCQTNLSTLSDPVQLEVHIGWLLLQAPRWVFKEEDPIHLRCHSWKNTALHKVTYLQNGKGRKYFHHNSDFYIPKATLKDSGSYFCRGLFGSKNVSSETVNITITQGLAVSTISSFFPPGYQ
T6 sequence (P12314 16-288 limits assumed): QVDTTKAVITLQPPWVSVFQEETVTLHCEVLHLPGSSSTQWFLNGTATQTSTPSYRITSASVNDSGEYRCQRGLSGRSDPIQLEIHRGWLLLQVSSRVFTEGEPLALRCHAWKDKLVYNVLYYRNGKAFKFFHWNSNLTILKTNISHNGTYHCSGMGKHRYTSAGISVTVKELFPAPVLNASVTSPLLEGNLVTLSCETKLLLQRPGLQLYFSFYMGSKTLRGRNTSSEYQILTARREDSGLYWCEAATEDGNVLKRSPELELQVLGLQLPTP

B1: FS20-22-49AA/FS30-10-16 (bispecific antibody, human IgG1, kappa, L234A L235A)
heavy: EVQLLESGGGLVQPGGSLRLSCAASGFTFSSYDMSWVRQAPGKGLEWVSDIDPTGSKTDYADSVKGRFTISRDNSKNTLYLQMNSLRAEDTAVYYCARDLLVYGFDYWGQGTLVTVSSASTKGPSVFPLAPSSKSTSGGTAALGCLVKDYFPEPVTVSWNSGALTSGVHTFPAVLQSSGLYSLSSVVTVPSSSLGTQTYICNVNHKPSNTKVDKKVEPKSCDKTHTCPPCPAPEAAGGPSVFLFPPKPKDTLMISRTPEVTCVVVDVSHEDPEVKFNWYVDGVEVHNAKTKPREEQYNSTYRVVSVLTVLHQDWLNGKEYKCKVSNKALPAPIEKTISKAKGQPREPQVYTLPPSRDEYWDQEVSLTCLVKGFYPSDIAVEWESNGDEQFAYKTTPPVLDSDGSFFLYSKLTVDQYRWNPADYFSCSVMHEALHNHYTQKSLSLSPG
light: EIVLTQSPGTLSLSPGERATLSCRASQSVSSSYLAWYQQKPGQAPRLLIYGASSRATGIPDRFSGSGSGTDFTLTISRLEPEDFAVYYCQQSYSYPVTFGQGTKVEIKRTVAAPSVFIFPPSDEQLKSGTASVVCLLNNFYPREAKVQWKVDNALQSGNSQESVTEQDSKDSTYSLSSTLTLSKADYEKHKVYACEVTHQGLSSPVTKSFNRGEC
notes: IgG1 with LALA; also called OX40/CD137 mAb^2; copies: 2 + 2
On to B1, for which the EC50 in test [1] was found to be 0.71 nM; in test [2], 0.12 nM; in test [3], 0.22 nM; in test [4], 0.11 nM; in test [8], 0.38 nM. Further, the “binding response at end of association phase of FcγR” value in test [5] came out at 31.4 RU; in test [6], 238 RU; in test [7], 37.4 RU.
